Experimental data from ChEMBL document CHEMBL3526099, “Metabolism of triethylenetetramine and 1,12-diamino-3,6,9-triazadodecane by the spermidine/spermine-N(1)-acetyltransferase and thialysine acetyltransferase” (Drug Metab Dispos, 2013).

Substrate: NCCNCCNCCN
Experiment: not read

B1: Thialysine N-epsilon-acetyltransferase (Homo sapiens) (protein)
chain: MASVRIREAKEGDCGDILRLIRELAEFEKLSDQVKISEEALRADGFGDNPFYHCLVAEILPAPGKLLGPCVVGYGIYYFIYSTWKGRTIYLEDIYVMPEYRGQGIGSKIIKKVAEVALDKGCSQFRLAVLDWNQRAMDLYKALGAQDLTEAEGWHFFCFQGEATRKLAGK
B1 was tested, and the Km was 2500 µM and the Vmax was 3.96 µmol/min/mg.
